Measured values reported in the domain aggregation screens of Martell et al. (2025).

Test: soluble fraction after stress (log2 fold change); higher = more stays soluble; pooled small domains, quantitative proteomics
Settings: stress: 50 degC
Outline: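 Each library was heated to 50°C as a stress step. The libraries, made up of small protein domains, were pooled and analysed at high throughput by quantitative proteomics. The reported value is the base-two logarithm of the fold change in each protein's soluble amount after stress, taken as a measure of aggregation propensity. The higher the value, the more protein stays in solution.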

Sequence	soluble fraction (log2)
HMALKPKITIEELIRILNESKDLSDSETAKILNKDYTTAKYGKEFTSINVQGARYALDIATNTS	-0.135
HMRTSIWTAIAHSLRSDIGSGVYGPDDKLPTESALAARFGVNRHTVRHAIKALTDEGLVLPRRGAGVFVTS	-0.21
HMVDLLDETLIEFYAFANNLIKDLETNSEKYGGMSQFEKELIFNEQITQYQRKLKIDLQDEVG	-1.54
HMSELLIVGSEQDNTRLDRFLADQYEEYTRSFLQKLIDQGNVSINGISVKKSGIKLKENDEIAVTLPEPQ	0.389
HMNTKLSYSDLIEKIEAGQVEKVELDAGGSSAIVKLKNDNIEKRVNVPSIDNLMENLQDNMKTGNISVTE	0.42
HMNLAISAYQQLKSDIIRGVYAPGEKLLMSRLKVRYGLGIGPMREALSQLVSEHLVTAASQRGYRVAGM	-1.64
HMNVNTHKTLILNSTFQPLSLATPQRALALLFSKKINVLKESDIKLRSVGQSVAIPKVAVLTYFVKA	-0.291
HMDGPGDRLLIAIQENSMTQKKFAQLIGMSPNGLNSIIKGKKRLSRVLAIATERLTGVRADWILQNEQPK	0.0136
HMNLPTSGVDALTPAERRVARMAGDGQSNREIAQTLFVTRKTVEIHLTSVYRKLGIASRAELSARL	-2.6
HMGDLKALMPGKVTQVLVSGGQKVKVGEPVLLMESMKMEQTIVATKDGDISEILVSEGDTVEVGKIMIKI	0.163
HMDFGMPEELQKKLDKMPALKAAFEALTPGRQRGYIFYFSQPKQSKTRELRIEKSIEQIMNGKGLND	-0.115
HMDTIASESVRNRIEELISNENPKKPLSDQALVKMLQEFDIKIARRTVAKYREMLKIPPSSKRKQV	0.0652
HMNNLVGKTKVLKSNTNIYAYKTMSGKFYSYLPNTRVRVLQDLGYINYIEVIATKRRGYVYENVY	-0.0937
HMSGHEVMVQRITAIIAELYQYGFVSRKKMMDEFNISERTLYRDLNRLGDRIVPDGDGIYRLAPAYA	-1.55
HMDDAIAEKTGGAVSSVNQRQAILDHIREAYGIELESLRSTDIERYLDDPEIPEPVKDILRDRLRGAK	0.181
HMDALKAVYQWVTRTMMKNQTGVMQTLPNRDLIELNTQITAQRLMQAGVDPTTLKNANQVENAVNIIESR	-0.473
HMLPELQPGQTFSARIQQALPDNTYRALVAGKQLTLQLPEGAKAGDELELVVLDRSARVIIARQVD	-0.146
HMGDITALMPGKVIQIIVKEGQEIKVGDPLIVIESMKMENTISSEVNGTIKSINIQIDDNVQFDQVLFTV	-2.1
HMEDEISLGAINVPRGSVIVTAGGARLVEGSDYTVDYYSGTVKILNKSLLDAGTPINVSLET	0.0198
HMATVHVDGIQYDFSSPEQAKEFAYKWAKKHNLTWEVHGETIHIK	-0.0845
HMDISPAAKQRLALIQPLLEKNAEAITDRKLRNAVAKDIANNQNTTVRRVLRLYYRYLATGQVM	0.0392
HMSVEYRKTLSDGNEYQIVKEKNGYVIKKSLNEGLDYLEPMKNRKYYSSYSQAFKRLNLIAKEVNINEGYD	-0.138
HMFSGVQLGQAISEAIKRKNVSQKEVADHFGVKQPSVSGWIKNGRIDKKHLDKLIDYFSDVVTPSHFGIE	0.246
HMAKDEYGLTSNQRAFADEYIRNKGNATQAYLFAYPHIKKENTAAVNASRLLRNAKVSKYIADRTKEIL	0.287
HMNRIKIYPTPGSKVLSIENINFSLIHDFKILDIFGREVKNFTVSSEKNTKMLVDTSKLSDGLYFIFFNTF	-0.58
HMSPLDSHLGRRIALRRQQLNTSAADLEKAISMVPGSVARFEAGRQSLNATQLFTLSRALDVPVLYFFEG	-0.534

Sequence	soluble fraction (log2)
HMDKQEKIHKKKIIILEALKRLLQNDVYSRITVQAVADEAGFSKGGLLHYFPTKEEMYIEFMEY	-0.0218
HMEPEVEITYFKPDERKAGGAYVTVTGAVIKVDDFERLITMQDGTKIPMDDILSIDGELFLS	-0.333
HMLLLASTPAEQTIIQLLAEGWRDGDQLQQRSHLSAADFSTALTMLEVNGSIKPLGANHWALTH	-0.919
HMERLKRVTLSLNQSNYSVTEIARRLQAITGIKDITVVEDEQAVYLKVDPATFDLTLAQQAV	-0.218
HMQEAGLITQRIREMREKENWTQEYMAEQLGMSENGYAKIERGESNLSLKRLQQIADIFEVESAELLK	0.0493
HMLDIPEVGQAVQVRGRLGTVFSVAPYDGREGRLHLVTVDYLDDARPPENDEILWEIESGARILG	-0.523
HMFTFEDMDKFESLLTTGLTDVQRRIYSLVTHDGKEYDLIAETLGISVEAVRMHMSRARKKIRENYKKID	-2.42
HMLTEEVEISLMDMTKPTQPATIKTTATIQKGATTVMPKQIKMPEGYEFYGNYKMDQPFELTMTFVVKKI	0.115
HMVKLSVGDIVQFAGGPHYVSSSAAKPASSPTAGPAKVTMIYQGAKHPYHIVHTTSASTVWGWVDADKVVK	-0.245
HMDPTEPLFVGVVTAEPYLNIREYPTTQSKDLGDLFPGMHVNVYEIVPNWYRIDDGWVASAWVKRDWGGG	-1.2
HMAVSTFGRITASSLNVRSGPSTDHEKVGSLAAGRVVELLEESDGWYRIENGYISTEYVTIVDPSQ	-0.355
HMSKEEAIQAMKEGKKVTHRFFSSDEWMTIENGFLLLEDGVRISLEDFFNFRSDSLWDNGYELYNPH	-0.162
HMFLDKDTLNQLYRFGIALTGNEQDSQDVLHTAIERFLRNKPQQINQQAAYIRTIMRNYWYDELRKLKTQ	-1.61
HMKKISAKQQQILDYISSYSLEHGYPPSVREIGAEMGLRSPSTVHAHLKKLQEAGYLEPNEHKSRALTP	0.128
HMHDEKHHQLANEIARKWAALRGNRDFAAADELKNLAAEAGVELQATKQAVGQGALAKLKENFDPVKLEAL	0.188
HMDAMGAVGIARAFISAGERGGDISDGLEHMHGKLLRLSSLMYTRSGKKMAARRHELLSSFVQALEEEIK	-0.174
HMREWPLWEIFIRGQHGLNHRHVGSLHAPDAAMAIGNARDVYTRRNEGVSIWAVRSADVVASVPSE	-2.33
HMGLDQNTLDRVDDINDTLATGIEIGPETRGTIEELNETLANGLKAGFDEETLARVDELLRVVEDGLK	0.0149
HMLDVFSAEQVADVLSVSKRNLETWANNGKLIPDFIHGEVALYSKKQLEQFEQFQRFFNSSWDAERLIQP	-0.947
HMFGIEIPEEAGKLQDYTLTDDDLEGGNTLKEIQFPQGARVVIIRRDDKFIIPDGSVELQSGDQLLIIYGE	-0.578
HMSLPALALRQADSLAFKQVIYHDRVVPFNTLARDFVLKLTGKPSYGGMTPEQVVGGWLLRPEVWQNEPM	-0.0387
HMARIDYHAMDSDDLSFSEGELLEIYDKPGSFWWKGRSLVSGDEGDIPS	-0.157
HMAVKYTKDDFLYTEKPYEAIYDYKNDPFMHNLKIEQMAQQAAEVGVKTFKGLYKNYVKMREMQRGANV	0.14
HMVSKQVTVNGIQYYQYTVQKSEGFYAISTKFGVTQDDIILANPSTKEGLRVGQEILIPIKT	-0.186
HMEHIDVSGRAFDVSVSRLKRARRLTMRIDTHKQLVKISAPLHVESSTIRAFLARNQNWLEQQVEKR	-0.881
HMTEYFTIESQEGERIDRYLSEELEDKSRSYIQKLIRDGHVLVDGKTVKAGYRLVAGDNIAITLPEI	-0.0879

Sequence	soluble fraction (log2)
HMYSKQRELIMEAVFKNRVHPTAEYVYKLLKKDHPELSLGTVYRNLNYWAENNMLKKINVPGGSDRFDGT	-0.00987
HMTRETTQAWWEARQTLPSGEQRSAASLSQEASHVRRFYRWAMQQGLTDRNPADWLPDVRQK	-0.232
HMNVDALVGMPARVTRAFVQGAGEVKLDNGETWTARLSAGVTDAEASVGQTVSVIAVRGAAVEVAPE	0.0386
HMYRSGGYTGAGKDDEEAGVVHRNEFVNTADAVRNPHVKRFLDVFNVAQKDGTIRMLNTSQILERARLDA	0.123
HMSPAPVSVDHLAFPTRDLEATDHFYSKVVGATLVHAESGYSPSWKSDYLLITYALPDGTRLSFFDWP	0.0261
HMDEDTWKLYKRAYKKYYARYMKGNMSEAAFKAWGEQAAADRDAAIEQLRATTDAALSASIIQQLKEKLNR	-0.581
HMISAEPVGEDLFKVAFPFLGGSTVFEKTIEQFIEEHPSKRIDHIYTVPNPLRLKKADALIFYIITEEK	-1.02
HMYVVLYPGMARDEAVQVMNELQSRGIDYYEKNGNIYVPKTDENSLRMELANLGYPKTTNNYD	0.0519
HMKMLEINDNDSVGLKNLKTQYNHNQKVIENFQLEINKVINDGELPDKYLLDGMEKYQKLNMQIMSTIEKQ	0.00483
HMGPTPTSAQLTEAKRLRTKLDDLNPELAERLWSEHREPYTETQYQTLIEKLAAEVQSAEGEIGR	0.182
HMFAATGVVNAPSGLVLRETASKGGNPLATVPDKAQVEIVEEDGEWYKVKVNEQTGYLFAEFVNKTE	0.0336
HMTIATLGERIRKLRKERGLTLAELAGDKLSKGMLSLIENNRAKPSMESLEYIAKRLGVEPAELLE	0.176
HMAIPTTDSDKATDAQIKQIKLLGDIHPNLKLDAWLERNHVTWETLTREQAGNMMKAIKNKYGD	-0.00881
HMEEINTAPVFKNIIEIAEYAKTKFTTVEEIPKMIEFIETANSKLDNPHDEESVNELINALSTNIRKNV	0.193
HMQISNEEELEKIIENVIESNPEKVKAYQSGKSGLIGFFMGQVMKESGGQANPNLVNQILKGKL	0.202
HMAERVWASLLEIKNAVAIEDAKTLEDVDNSEKIAEERIAALNDDAKHPLAIAFIGKLRQDIAEKKIELA	0.379
HMTDSQLVEAENHVALRQAMAHLGPRERELIGLYYFEEQSQTQIAARFGVSQMQVSRWLTSAVGRIRGQMA	-0.00256
HMDYTGIPQSLLDLMKKDNIMPMQIQRAVAERNYYPVDTPISNYDPMFIEAKLVGAWDQVLNVISHLDLP	-0.649
HMTHHGHSIKRIRDMLGIKQETLAAELNMTQQAFSKLEQKEQIEDEMLDKIAKILHVSTEALKT	-0.00336
HMTAPDDFIRAEVTASGKNGMAVAELSKRVRTRFKSFKVRELGYPHLAGYLADVEGVRVYKQGRENWVAK	-0.905
HMATTAGIEKYLGSGLIKGIGPIYAKKIVRKFKEDTIRIIDEEPDRLLEVEGIGQKRLEIIKQAWQQQKE	-0.391
HMIAASPVGGIDRVLELLDARGQRVAWIEASGTEGGQRLRLGWIDAQGAERHGAWVPWSADDLLLYA	-0.387
HMIGGASVFKQFLPLADKMLLTLIHSEFEGDTYFPVFSEKEWLLQESSSLLSATGYQLSFQTYIR	0.0328
HMGFYDLFINLADKVGSLADVTQILAEARINLVNVHILEIREEIDGIAQLTFSSEKDRQKALELLKTKYK	-1.33
